Data from paper PMC6367035 (Nature, 2018).

T1: Sec61 (S. cerevisiae) (S. cerevisiae, UniProt P32915 1-480, surface-exposed lysines modified with low-molecular weight polyethylenglycol (MS(PEG)12 methyl-PEG-NHS-ester))
T1 sequence (looked up): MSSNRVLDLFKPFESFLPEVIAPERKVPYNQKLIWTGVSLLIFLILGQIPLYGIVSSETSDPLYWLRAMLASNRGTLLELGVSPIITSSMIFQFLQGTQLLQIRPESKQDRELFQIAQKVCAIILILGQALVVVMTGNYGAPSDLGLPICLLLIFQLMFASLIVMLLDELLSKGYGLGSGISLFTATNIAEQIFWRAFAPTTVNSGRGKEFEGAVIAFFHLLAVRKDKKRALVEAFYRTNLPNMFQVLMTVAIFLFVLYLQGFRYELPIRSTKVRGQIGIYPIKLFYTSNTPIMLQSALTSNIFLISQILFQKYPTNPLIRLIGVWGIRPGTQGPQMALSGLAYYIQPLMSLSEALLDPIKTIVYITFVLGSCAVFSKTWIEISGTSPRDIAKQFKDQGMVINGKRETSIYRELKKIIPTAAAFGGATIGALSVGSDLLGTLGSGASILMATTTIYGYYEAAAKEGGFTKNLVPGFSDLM


biological target: T1, Sec61 (S. cerevisiae); assay: cryo-EM structure

Row | binding result | Binder
1 | binds | Sec71 (S. cerevisiae) (natural protein, UniProt P33754 1-206, looked up, glycan (cleaved by Endoglycosidase H); surface-exposed lysines modified with low-molecular weight polyethylenglycol (MS(PEG)12 methyl-PEG-NHS-ester)) MSEFNETKFSNNGTFFETEEPIVETKSISVYTPLIYVFILVVSLVMFASSYRKKQAKKISEQPSIFDENDAHDLYFQIKEMSENEKIHEKVLKAALLNRGAESVRRSLKLKELAPQINLLYKNGSIGEDYWKRFETEVKLIELEFKDTLQEAERLQPGWVQLFVMVCKEICFNQALSRRYQSILKRKEVCIKEWELKINNDGRLVN
2 | binds | Sss1 (S. cerevisiae) (natural protein, UniProt P35179 1-80, looked up, surface-exposed lysines modified with low-molecular weight polyethylenglycol (MS(PEG)12 methyl-PEG-NHS-ester)) MARASEKGEEKKQSNNQVEKLVEAPVEFVREGTQFLAKCKKPDLKEYTKIVKAVGIGFIAVGIIGYAIKLIHIPIRYVIV
3 | binds | Sbh1 (S. cerevisiae) (natural protein, UniProt P52870 1-82, looked up, surface-exposed lysines modified with low-molecular weight polyethylenglycol (MS(PEG)12 methyl-PEG-NHS-ester)) MSSPTPPGGQRTLQKRKQGSSQKVAASAPKKNTNSNNSILKIYSDEATGLRVDPLVVLFLAVGFIFSVVALHVISKVAGKLF
